1 molecule from publication PMC5996960 (Molecular Biology of the Cell, 2018) can be followed below.

This test concerns the target T1, His6-tagged yeast cyclin C (S. cerevisiae, UniProt P47821 1-323).
T1 sequence (looked up): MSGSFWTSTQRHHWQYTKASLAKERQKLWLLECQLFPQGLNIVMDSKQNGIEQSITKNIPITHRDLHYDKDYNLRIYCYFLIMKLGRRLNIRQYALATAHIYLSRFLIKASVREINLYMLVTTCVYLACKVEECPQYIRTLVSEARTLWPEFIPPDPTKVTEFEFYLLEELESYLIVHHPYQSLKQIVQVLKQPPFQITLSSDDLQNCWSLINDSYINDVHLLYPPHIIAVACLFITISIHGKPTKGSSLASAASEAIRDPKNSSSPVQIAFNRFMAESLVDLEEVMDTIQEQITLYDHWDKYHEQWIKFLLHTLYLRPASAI
In words: pull-down.

B1: GST-Med13^742-844 (domain or fragment, S. cerevisiae, UniProt P38931 742-844, looked up)
chain: DIPQTESPLKTVDSSIQPIESNIKMTLEDNNVTSNPSEFTPNMVNSEISNLPKDKSGIPEFTPADPNLSFESSSSLPFLLRHMPLASIPDIFITPTPVVTISE
For the molecule B1, the binding result is “binds”.
